% of cells within gate data for two substances are collected here from patent US20200017880A1.

The target in test [1] is CD28 on cells (PBMCs, T responder cells) (human) (UniProt P10747). As to the kind of experiment: flow cytometry; Fab monomers remaining on the liberated CD28+ cells after D-biotin and washing, detected with an antibody against the immunoglobulin kappa light chain. (Flow cytometry measures light scatter and fluorescence of single cells or particles in a stream.)
Test [2] addresses CD3 on Jurkat cells and on PBMCs (UniProt P07766). Kind of test: flow cytometry; second Fab-multimer staining of PBMCs that had been stained reversibly, treated with D-biotin and washed (control panel, far right).
Chain of UniProt P07766 (P07766 23-207): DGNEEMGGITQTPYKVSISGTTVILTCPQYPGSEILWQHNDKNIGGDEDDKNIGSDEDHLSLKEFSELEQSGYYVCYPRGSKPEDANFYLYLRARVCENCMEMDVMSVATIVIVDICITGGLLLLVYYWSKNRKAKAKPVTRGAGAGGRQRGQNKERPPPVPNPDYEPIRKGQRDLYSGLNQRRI

For the substance “anti-CD28 Fab fragment derived from antibody CD28.3, heavy chain C-terminally fused to Twin-Strep-tag (monomeric Fab)”, the % of cells within gate in test [1] amounted to 5.91%.
In test [2], “OKT3 Fab fragments multimerized by reversible binding to soluble Strep-Tactin conjugated with phycoerythrin” came in with a % of cells within gate of 64.7%.
